Assay results: the DeepSol protein solubility set

Test: soluble on expression in E. coli; label from the status in PepcDB or PDB records

| Sequence | soluble on expression in E. coli |
| --- | --- |
| MSDSKPRDVQVLPIATNTKVLRARSWSRLRFEIEYALERGTTSNSYVIEGDKTAIIDPPVESFMKIYLEALQQTVNLKKLDYVILGHFSPNRIPTFKALLELAPQITFVCSLPAAGDLRAAFPDDNLNILPMRGKETLDLGKGHVLKFLPIPSPRWPAGLCTYDVQTQILYTDKIFGAHICGDDVFDDNWESFKEDQRYYFNCLMAPHAIHVEAALEKISDLQVRLYAVGHGPLVRTSLIALTQAYADWSKAQKDREISVALLYASAYGNTATIARAIALGLTKGGVAVKSINCEFATPEEIQTNLEQVDGFLIGSPTIGGHAPTPINTALGIVLKVGDNNKLAGVFGSYGWSGEALDMIEGKLRDAGYRFGLDTLKVKFKPDDVTLKFCEEVGTDFAQTLKKAKKVRVPQQAATPVEQAVGRIVGSVCVITAKQGDVSTGMLGSWVSQATFNPPGLTVAIAKERAIESLMYPGGKFALNILSEGNHLEYMKHFRKNFAPGEDRFANFTTTEADNGCTVLADALAYVECSVDQRLECGDHWVVYATVDNGKLLKPDDVTAINHRKTGNHY | soluble |
| MGSDKIHHHHHHEETRTEVEKKNYMNNAEEAKDVLLGVYRTNTLDAMYGYYLSILFNLGTDISQVEGSGNENFRIIPTNSFPTTQSEVQQTWAALYTGIYRANDFLERISNKIGSYTTTDKKLATLYIAEARALRGMFYFELVRRFGNVVLMTSTQMSNQNPATYVQSAPEKVYEYIEDDLLYACDILPYATDDQYRESNDYRFSKGAALGLLTKVYATWAGYPVKDESKWEAAAKTARILVESGKHGLLKDYEQLWKNTCNGTWDPTESLIEISFYSPTVSGNSDPVGRIGKWNGVKTTAIAGVRGSCAANVKVVHTFVLDWREDVSDIRRDLSIANYQYTDTKKSLWVAGASDTDESAAEKDADPTKAQKNKQNYTPAKWDIQKYVTTNSFINNDKSNVNWYFLRYADVLLLYAEALNEWKHGPDAEAYNAINAVRRRGYGNPSNTSACDLPQGLDETSFREAVRKERSYELSFEGHRRQDLIRWGIYYKTVQATAKELGYWWEGTGSPNYSVATYTEEGKHELFPIPQRDMDLCIQFNQNPKW | not soluble |
| MRMSSNFRNPCMIRSDVPLSNDQIAHYVPSIFAEEAHDSRSARYLYIPTVQVLDALRAEGFEPFMACQTRVRDQGKREHTKHMLRLRHASQILDQEANEVILLNSHDGSSSYQMIGGKFRFVCANGLVLGDVAADQKVRHSGRGDVVHDVIEGAFEVLKHFEQIDHITADMKHQQLDQDEQEAFALAALAYRYDPAEGPAPVTPSQLLMPRRREDRSSDLWTTFNRVQENTIKGGLTGRNKQGRRTTTRAVNGIDQDVKLNRALWVLAQAMGEHRKAA | not soluble |
| MALSAEGSSGGSRGGSPKAEAASVPSWPQILGRLTDNRDLARGQAAWAMDQIMTGNARPAQIAAFAVAMTMKAPTADEVGELAGVMLSHAHPLPADTVPDDAVDVVGTGGDGVNTVNLSTMAAIVVAAAGVPVVKHGNRAASSLSGGADTLEALGVRIDLGPDLVARSLAEVGIGFCFAPRFHPSYRHAAAVRREIGVPTVFNLLGPLTNPARPRAGLIGCAFADLAEVMAGVFAARRSSVLVVHGDDGLDELTTTTTSTIWRVAAGSVDKLTFDPAGFGFARAQLDQLAGGDAQANAAAVRAVLGGARGPVRDAVVLNAAGAIVAHAGLSSRAEWLPAWEEGLRRASAAIDTGAAEQLLARWVRFGRQILEHHHHHH | soluble |
| MGSDKIHHHHHHMRILALVPGGIGDQILFFPTVADLKKYYPQAQIDVVVEPRAVGAYRVCAEVDQVFPFDFKDRNSLADWGNLLGSIREREYEAVLSLGQRSLVGLFLWLTGIPKRVGYAGRGKIFLTDAVPLNREQYAGALYHDLLQGFGINTPCPNPKLTLARQDLDWATAEQQRLGLAGQGYLVLHGGSSTLAKLKGLQKVYPVEKWAIVLRSIREQRPSLPFVVVQGPDDAEFVAELRKSNLDFQVVQPPDIGKLAAIIAGADLMLCTDSAPMHLAVASGTRTIALFGPFEPAKLLPADDRFIGIKAQGVDVATIPPQEIIDRLFGR | not soluble |
| GRWILKNDVKNRSVYIKGFPTDATLDDIKEWLEDKGQVLNIQMRRTLHKAFKGSIFVVFDSIESAKKFVETPGQKYKETDLLILFKDDYFAKKNEERKQNKVE | soluble |
| MTINEPLLSPLEQVVRNIEQVIVGKRNVIVLSLTALLAKGHVLLEDVPGVGKTMLVRALAKSFSAELKRIQFTPDLLPSDVIGVSVYNPKTQQFEYKPGPIVAHIVLADEINRTSPKTQSALLEAMEEGSVTVDGVTRALPQPFFVMATQNPIEYEGTYPLPEAQLDRFLLKLHMRYPSPDEEIEMLNRLEKTAPLAEIGPVMSLDELLALQRKVADVHVSDTVKRYIVDLIQQSRQHEAVYLGVSPRGSVALMKAAQAYAFIHGRDFVIPDDVQQLAPYVLAHRLLVRPEAKWDKFDAETIIGQLIARTPVPVPGRR | not soluble |
| MEVITFESEAYKALVGKIEKIAGYVAEAQLPSEEKKETWLDSNQLAEALGISTRTLQRLRDENLISYSMLRGRCMYKLSEVERCLEERTIRCKPQTLEDFRKNYLTRTGNDKKG | not soluble |
| MMDESLCGGLPPEICEQLSVEEQIIKIRLEKRRFGREVTIIEGINEKEFNLKKLASTLKSRLATGGTAKNGRIELQGDHRHRVKKILVELGFPEENITIID | soluble |
| MPVVIIVEHPRFISSAGPAVKGDTGQIMKYEKTKEFPHTKKFKAICYGAMMHPKRACKLTEQPTMTKQKRKNTFLTAYYRAKEICMIYSHIFINKLPKQKLTFKQFYVKK | not soluble |
| MTQISERLLVQAHLDAKQPNPLTAEQEAEYRAAIAAELKAQNAVLVAHYYCDPVIQALAEETGGCVSDSLEMARFGKNHPAETVIVAGVRFMGETAKILTPEKRVLMPTLEATCSLDLGCPVEEFSAFCDQHPERTVVVYANTSAAVKARADWVVTSSCALEIVESLMDNGETIIWGPDQHLGRYIQKQTGADMLLWDGACIVHEEFKSRQLADMKALYPDAAILVHPESPEAVIELADAVGSTSQLIKAAQTLPNKTFIVATDRGIFYKMQQLCPDKEFVEAPTAGNGAACRSCAHCPWMAMNTLERVLDCLRNGTNEIFVDPALVPKAIKPLNRMLDFTQAARLKLSGNALEHHHHHH | not soluble |
| GQYDYIKVAVSLMGSAYYVDFAKELSKYALAQGLTFPYDVDERILALQKYDLTQNITKINNRPLLLWHGKKDDVVPFAYSEKLYQTLVEESLADNVEFIIDDNAKHKVSVEGMLQGVSFFEKFL | not soluble |
| SLQEAETAARLHEVHGSWQLACAAAAKKDSADAASSTGGETKPPCAIAQVQLEEKTRKLVVSVEFRLDDAATPDRLNGTMVLPFGLAVTKLFSVKSGNMRLQEVQVSTCLPVGCIVSFTPFIELVSALKAEQTLTIEAPDLQGRIVSFQLQGKGFPEALKRLGEVR | not soluble |
| MGTIADIVVTEQNAERFWIVVHRDGAPSLRLTVDQDVLLQFRLKKGMEISDDLLQHIVYADEVKKAYQQALYFLAHRMRSEHEVAAHLRKKGAPDSVIDEVLKKLRAERYVDDEAFAAAYVRTQKKTAAKGPLLIRAELERLGVLGCLIEQSLAEYTLDEQMAIARSLYEKAKKQRLAESARAFLERVRQQLMRKGFPHEVIAAVLADGGAHTEQEEREALSVQAEKAHRRYAHHPRPLYEQKMRQALYRKGFALDLINEWLRMHGNDE | not soluble |
| MTNSNRRKFLKATGVGLLGGLAGCTRGGDSSGGDGSDGSSDGSDGSGGSDGGTSTSGSDGELAIPLSEYEDADIDWRQFEGSSINIGAVQHPWVSAIKPAVPVFEELTGIDVVWNVLPEQQFRTKRQTDVSTGAGQFDVFYMDQVVNQFREEGWIQPLDPFFDDDSLFDEDWYEPDDLFEASRWQAHGGGYSDTWTGMPITVEVQTQFYRKDLYDKHDLEVAETLEQFRQNAQTIHENESDVVGTVGRGDKGYGMNIYILNTFLREFGTSLWTEFPTDSGLDSDGVINAAEWYVSLLQDYGPEGASTQTWSDVLSTMQEGRAGHIVSDANLFWPGLTGSDSSVADNIGIAKAPSPADGQFSPNAFNWQISTSKNAQNSEQAFLFMVWASSQPTNTWMHVEGDAAFSVRQSVWENDEFRSRVGENFAQVTLESLQEAAPDPFDRKYPQWGQRYSEELQRAIAGQKSAEEAMTKAASVAEDIYSN | not soluble |
| MTLYEYDGSHVRKRVFQNTSWIFVTGDRYDIETLYDQLDSTRLKYEYSTMPDIYGYQDGIKIWVRPSHARMVGEIIFSNIGYGRRYRVYNADIDPVLRFMASNGLSFFEMRSVYDPDPDLNVAMVDCSHGKCIVDGEAMGDGRIYDRLMDSHVIVYEGTEQFYRKLMALGIRARYYPGKSFTSYGQISYRDSYLDIADRIAINSRSFFYAESGLSGIYEVSRISHLPPLYVSIVTPGTAVSSMELAEAVKKGMLVPFKKDDHENPKTKWEIMAKDRGGLIFQPLPGLYTDVYEIDFSSMYPSIIVRYDLTPGRISFLPEALEGLLSRRLIYKKMDGESVVYHSRNVALKWLLLTSFGYTGYKNAKFGKIEVHERITELGRKALAEAIAVAHENGFEMIHGIVDSLWIRGSGSIERVVSEISRRTRIDIVVSGHYHWIAFLPERDGTGSPSRYIGLDTSGKYKIRGLMIRRSDVPDLCKAFQMDALRVLSSCTDTRCILEKRREIMDLENYYLRNIRHFPRSYFMVSRKITRRPDEYHVKNLTRSALDLCRDAEELSPGQMISYYVVDEKRKIVDTDGENGIDYGYYRRCLTRALEEINFLFGKNCNIRRLEDFQSFQ | not soluble |
| MSTIPSEIINWTILNEIISMDDDDSDFSKGLIIQFIDQAQTTFAQMQRQLDGEKNLTELDNLGHFLKGSSAALGLQRIAWVCERIQNLGRKMEHFFPNKTELVNTLSDKSIINGINIDEDDEEIKIQVDDKDENSIYLILIAKALNQSRLEFKLARIELSKYYNTNLH | soluble |
| MGHHHHHHSHKIRVAHTPDADDAFMFYAMTHGKVDTWLEIEHVIEDIETLNRKAFNAEYEVTAISAHAYALLDDKYRILSAGASVGDGYGPVVVAKSEISLDGKRIAVPGRYTTANLLLKLAVEDFEPVEMPFDRIIQAVLDEEVDAGLLIHEGQITYADYGLKCVLDLWDWWSEQVKLPLPLGLNAIRRDLSVEVQEEFLRAMRESIAFAIENPDEAIEYAMKYSRGLDRERAKRFAMMYVNDYTYNMPESVDAALKKLYEMAEAKGLIKMPKLDILRL | soluble |
| MGAGSQTTGAGQKKVQTITVGTGTQFPNICFIDEKGDLTGYDVELIKELDKRLPHYKFTFKTMEFSNLLVSLGQHKVDIVAHQMEKSKEREKKFLFNKVAYNHFPLKITVLQNNDTIRGIEDLKGKRVITSATSNGALVLKKWNEDNGRPFEIAYEGQGANETANQLKSGRADATISTPFAVDFQNKTSTIKEKTVGNVLSNAKVYFMFNKNEQTLSDDIDKALQEIIDDGTLKRLSLKWLGDDYSKEQYLEHHHHHH | soluble |
| MNLKSFTRKVSSTRDHRLLAEAIFDQLENLFSPHAIAIFEDPLTNPRCSVSFSRGELYPIQKYPEIFWDWACQFDTSESIIPLAINTCNWNHTQDLGGDSYILMLDNTPIKRTYLLIQSVQARTAHNIYEESYDAMQLAAARWQCIRAEKNASQEMRHRDIREAQYVDEISQRERFIENMKLVQQVALEISNPDSLKDLYYKAVEALRERLGFDRTTLMLLDMKKRSFSGTYGTDESGITIDEFHTQYDLHQLSEEYIAALSSLESNLVIIEDAPIYTAGKVVGQGWNAMLILRDGNEPFGWFALDNFIHRKPITAYQKQMLDSFGSLFSQIYIRKRQEQNVRMLHSSMVELSRCTTVSDVCKSAVTFAIKNLGIDRMAVFLTDENCSYMQGTWGTDIQGNVVDESYFFGETQNFSLINLARAVPSEVAFEESVPIYHDCNIVG | not soluble |
| ASVKAVGRVCYSALPSQAHDTLDLIDEGGPFPYSQDGVVFQNREGLLPAHSTGYYHEYTVITPGSPTRGARRIITGQQWQEDYYTADHYASFRRVDFAC | soluble |
| MNMNKETHICALCERKVPKITEHHLIPREKGGRFDETTWLCVPCHKQVHALYSNYELAVRLNSLPRLKDDEKIKRYLKFIKKQPGDANVTIKKSKAIRKKGRYLEHHHHHH | not soluble |
